The text below walks through data of paper doi:10.1101/2020.10.15.341636 (bioRxiv, 2020).

B1: mAb 52 IgG (antibody, V domains shown)
VH: QVQLVQSGAEVKKPGSSVKVSCKASGYTFTSYGISWVRQAPGQGLEWMGGIIPMFGTTNYAQKFQGRVTITADKSTSTAYMELSSLRSEDTAVYYCARDRGDTIDYWGQGTLVTVSS
VL: DIQMTQSPSSLSASVGDRVTITCRASQGISNNLNWYQQKPGKAPKLLIYAASSLESGVPSRFSGSGSGTDFTLTISSLQPEDFATYYCQQGNGFPLTFGPGTKVDIK
B2: mAb 298 IgG (antibody, V domains shown)
VH: QVQLVQSGAEVKKPGASVKVSCKASGGTFSTYGISWVRQAPGQGLEWMGWISPNSGGTDLAQKFQGRVTMTRDTSTSTVYMELSSLRSEDTAVYYCASDPRDDIAGGYWGQGTLVTVSS
VL: not shown
B3: mAb 236 IgG (antibody, V domains shown)
VH: QVQLVQSGAEVKKPGASVKVSCKASGGTFTSYGINWVRQAPGQGLEWMGWMNPNSGNTGYAQKFQGRVTMTRDTSTSTVYMELSSLRSEDTAVYYCASRGIQLLPRGMDVWGQGTTVTVSS
VL: not shown
B4: mAb 324 IgG (antibody, V domains shown)
VH: QVQLVQSGAEVKKPGASVKVSCKASGGTFNNYGISWVRQAPGQGLEWMGWMNPNSGNTGYAQKFQGRVTMTRDTSTSTVYMELSSLRSEDTAVYYCARVGDYGDYIVSPFDLWGRGTLVTVSS
VL: DIQMTQSPSSLSASVGDRVTITCRASQSITTYLNWYQQKPGKAPKLLIYDASNLETGVPSRFSGSGSGTDFTLTISSLQPEDFATYYCQQSYSTPPTFGQGTKVEIK
B5: Fab 52 (Fab, V domains shown)
VH: QVQLVQSGAEVKKPGSSVKVSCKASGYTFTSYGISWVRQAPGQGLEWMGGIIPMFGTTNYAQKFQGRVTITADKSTSTAYMELSSLRSEDTAVYYCARDRGDTIDYWGQGTLVTVSS
VL: DIQMTQSPSSLSASVGDRVTITCRASQGISNNLNWYQQKPGKAPKLLIYAASSLESGVPSRFSGSGSGTDFTLTISSLQPEDFATYYCQQGNGFPLTFGPGTKVDIK
B6: Fab 298 (Fab, V domains shown)
VH: QVQLVQSGAEVKKPGASVKVSCKASGGTFSTYGISWVRQAPGQGLEWMGWISPNSGGTDLAQKFQGRVTMTRDTSTSTVYMELSSLRSEDTAVYYCASDPRDDIAGGYWGQGTLVTVSS
VL: not shown

The target in one test is T1, SARS-CoV-2 wild type RBD (BEI NR52309) (Severe acute respiratory syndrome …, UniProt P0DTC2). The test is described as follows: BLI. (In general: In BLI a coated tip is dipped into the sample, and binding shifts an interference pattern.)
As for B1, the binding result is listed as “binds”. With B2, the binding result is “binds”. On the same count and under the same terms, in the case of B3 it was “binds”; in that of B4, “binds”.

In the next test the target is T1, SARS-CoV-2 wild type RBD (BEI NR52309). The test can be described thus: crystal structure.
Take B5: the binding result is “binds”.

With B6, the binding result is “binds”.
